Source: the nanobody polyreactivity screen of Harvey et al. (2022)

assay: yeast display, Sf9 membrane polyspecificity reagent, FACS + sequencing; frameworks hold sequencing errors
Summary of the method: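 A synthetic nanobody library was expressed on Saccharomyces cerevisiae BJ5465 by galactose induction for 36–48 hours. The library was stained for 1 hour at 4 °C with 10% biotinylated, detergent-solubilized Sf9 membrane reagent and enriched with streptavidin microbeads before FACS. Low and high (top ~1%) gates were set on anti-HA fluorescence for expression and streptavidin fluorescence for reagent binding, and each polyreactivity label reflects the gate of origin.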

Sequence	polyreactivity (PSR sort gate)
QVQLVDSGGGLVQAGGRLRLSCAASGRTFSKYAMGWYRQAPGKERELVASITRSGGSTNYADTVKGRFTISRDNAKNTVYLQKNSLKPEDTAVYYCRRKLGRTHDTGFDYWGQGTQVTVSS	low polyreactivity
QVQLVESGGGLVQAGGSLRLSCPASGSTFPYYAMGWYRQAPGKERELVARINWGGSSTYYADSVKGRFTISRDNAKNTVYLQMNSLKPEDTAVYYCARYSSRWSLMDYWGQGTQVTVSS	high polyreactivity
QVQLQESGGGLVQACGSLRLSCAASGYIFSHQYMGWYRQAPGKERELVASISPGATTNYADSVKGRFTISRDNAKNTVYLQMNSLKPEDTAVYYCARRYRPKYGYWGQGTQVTVSS	high polyreactivity
QVHLVESGGGLVQAGGSLRLSCAASGFTFYRTAMGWYRQPPGKERELVAAITRGASTYYADSVKGRFTISRDNAKNNVYLQMNSLKPEDTAVYYCAADRYYYRGRYYGYTREFDYWGQGTQVTVSS	high polyreactivity
QVQLVESGGGLVQAGGSLRLSCAASGNTFAQNTMGWYRQAPGKEREFVAGITFSGTGTYYADSVKGRFTISRDNAKNTVYLQMNSLKPEDTAVYYCAAESVYTWYYQDDDDYWGQGTQVTVSS	low polyreactivity
QVQLVDSGGGLVQAGGSLRLSCAASGRTILINAMGWDRQAPGKERELVAGITRNGGTTYYADSVKGRFTISRDNAKNTVYLQMNSLKPEDTAVYYCAKRYPSWFNYWGQGTQVTVSS	high polyreactivity
QVQLVESGGGLVQAGVSLLLSCAATGIIFSYYAMGWYRQAPGKERELVAAISWNSGSTYYADSVKGRFTISRDNAKNTVYLQMNSLKPEDTAVYYCAAESYYSYSYYRPYEYYYWGQGNQVTVSS	high polyreactivity
QVQLVESGGGLVQAGGSLRLSCAASGRTFGRYTMGWYRQAPGKERELVAAITGRGGSTFYADSVKGRFTISRDNAKNTVYLQMNSLKPEDTAVYYCAARRTSIKDQFYYWGQGTQVTVSS	high polyreactivity
QVQLVESGGGLVQAGGSLRLSCAASGRNFRGNTMGWYRQAPGKERELVAAITRGGSTSYADSVKGRFTISRDNAKNTVILQMNSLKPEDTAVYYCATRTHGEGTRRVSWGQGTQVTVSS	low polyreactivity
QVQLVESGGGIVQAGGSLRLSCAASGSTFGGNAMGWYRQAPGKERELVAAITSGTGTHYADSVKGRFTISRDNAKNTVYLQMNSLKPEATAVYFCAAEVWSWAGIWGYEYWGQGTQVSVSS	low polyreactivity
QVQLVESGGGLVQAGGSLRLSCAASGRTFLTNTMGWYRQAPGQEREWVATISNGGRTNYADSVKGRFTISRDNAKNTVYLQMNSLKPEDTAVYYCAKDYRAYHPHWYGSTFGWGQGTQVTVSS	high polyreactivity
QVQLVESGGGLVQAGGSIRLSCAASGIIFYYYAMGWYRQAPGKERELVAGISYSGGSTYADSVKGRFTISRDNAKNTVYLQMNSLKPEDTAVYYCAADYDYGGHWYDYWGQGTQVTVSS	low polyreactivity
QVQLVESGGGLVQAGGSLRLSCAASGFTFTDYAMGWYRQAPGKERELVAAIYGIGGSTYYADSVKGRFTISRDNAKITVYLKMKSLKPEDTAVYYWNAYRSFTGYDYDYWGQGTQVTVSS	high polyreactivity
QVQLVESGGGLVQAGGSLRLSCADSGRTFRANAMGWYRQAPGKERELVAAITSTGDRTYYADSVKGRFTISRDNAKNTVYLQMNSLKPEDTAVYYGNAVYDLYHYWKFYYWGQGTQVTVSS	low polyreactivity
QVQLVESGGGLVQAGGSLRLSCAASGRTFGRYVMGWYRQAPGKERELVSAISKGGTSTYYADSVKGRFTISRDNAKNTVYLQMISLKPVVTAVYYCAAGSFARYTYVPRYDYWGQGTQVTVSS	high polyreactivity
QVQLVESGGGLVQAGGSLRLSCAASGSTFSYYTMGWYRQATGKERELVAAISGSGGSTYYADSVKGRFTISRDNAKNTVYLQMKSLKPEDTAVYYCAALRAGSKCFDFWGQGTQVTVSS	high polyreactivity
QVQLVESGGGVVQAGGSLRLSCAASGSTFHYYAMGWYRQAHGKERELVAAISYSSGSTYYADSVKGRVTISRDNAKNHVYLQMISLKPEDTAVYYCATESYSYYIHTTYYYWGQGTQVTLSS	low polyreactivity
QVQLVESGGGLVQAGRSLRLSCAASGIISYRNGMGGYRQAPGKERELVASISKRADSTYYADSVKGRFTISRDNAKNTVYLQLNSLKPEDTAVYYCAARRLITCYGQTHYGYWGQGTQVTVSS	high polyreactivity
QVQLVESGGCLVQAGGSLRLSCAASGFTFIRYAMGWYRQAPGKERELVAAITVSGTRTYYADSVKGRFTISRDNAKNTVYLQMNSLKPEDTAVYYCNARDVYTGYGMGYWGQGSQVTVSS	high polyreactivity
QVQLVESGGGLVQAGGSLRLSCAASGSTFRDYAMGWYRQAPGKERELVAAITYSDGGTYYADSVKGRFTISRDNAKNTVYLQMNSLKPEDTAVYYCAADYPIYSFYYSAYFIFGYWGQGSQVTVSS	low polyreactivity
QVQLVESGGGLVQAGGSLRLSCAASGSIFKYYAKGWYRQAPGKERELVAAITIGGNTNYADSVKGRFTISRDNAKNTVYLQMNSLKPEDTAVYYCATGGYYSAIVYGGYDYWGQGTQVTVSS	low polyreactivity

Sequence	polyreactivity (PSR sort gate)
QVQLVESGGGLVQAGGSLRLSCAASGSTFGKYAMGWYRQAPGKERELVAAITWSGASTFYADSVKGRFTISRDNAKNTVYLQMNSLKPEDTAVYYCAARSYKSYYIFDYWGQGTQVTVSS	low polyreactivity
QVHLVESGGGLVQAGGSIRLSCAASGRTLDPYTMGWYRQAPGKERELVAAITSSGGRTTYADSVKGRFTISRDNAKITVYLQMNSLKPEDTAVYYCAKKFRPVYRSQYLRYSWGQGTQVTVSS	low polyreactivity
QVQLVESGGRLVQAGGSLRLSCAASGYTYDRYAMGWYRQAPGKERQLVAAISSSGTSTYYADSVKGRFTISRDNEKNTVYLQMNSLKPEDTAVYYCAATRLKLKFAYWGQGTQVTVSS	high polyreactivity
QVQLVESGGGLLQAGGSLRLSCAASGSNFDRYGRGWYRQAPGTERELVADITSDGSTNYADSVKGRFTISRDNAKNTVYLQMNSLKPEDTAVYYCAVSYTAYSVGYDYWGQGTQVTVSS	low polyreactivity
QVQLVESGGGLVQAGGSLRLSCAASGRTFARYAMGWYRPAPGKERELVASITRTGGSTYYADSVKGRFTISRDNAKNTVYFQLNSLKPEDTAVYDCATQSWKVRSKMDYWGQGTQVTVSS	high polyreactivity
QVQLVESGGGLVQAGGSLRLSCAASGRILGYYAMGWSRQAPGKEREFVAAITTRGGNTYYADSVKGRFTISRDNAKNTVYLQMNSLKPEDTAVYYCAAESYTYRDAPTYFTRMYYWGQGTQVTVSS	high polyreactivity
QVQLEESGAGLVQAGGSLRLSCAASGITFYYNDMGWYRQAPGKEREMVASISGDGGSTYYADSVKGRFTISRDNAKNTVYLQMNSLKPEDTAVFYCAASAGYYEVLYDYWGQGTQVTVSS	low polyreactivity
QVQQQESGGGLVQAGGSLRLSCAASGTIFQLTVMGRYRQAPGNERELVASIDYGGNTNYADSVKGRFTISRDNAKNTVYLQMNILKPEDTAVYYCPASSDSWTTHPYWGQGTQVTLSS	low polyreactivity
QVQLVESGGGLVHAGGSLSLSCAASGSTLRAYTMGWYRQSPGKERELVATITRRGGTTYYADSVKGRFTISRDNAKNTVYLQMNSLKPEDTAVYYCAAKWYSTHRYDYWGQGTQVTVSS	high polyreactivity
QVQLVESGGGLVQAGGSLRLSCAASGLKFAHYAMGWYRQAPGKERELVAAISRSGGRTRYADSVKGRFTISRDQAKNTVYLQMNSLKAEDTAVYYCAAVGSVNYDADFDYWGQGTQVTVSS	high polyreactivity
QEQLLESGGALVQAGGSLRLSCMASGSILGDRMSWYRQAPGKEHELVATIYDGGITYYADSMKGRFTISRDNAKNTVYLQMNSLRPEDTAVYYCGASFEGYRYHVYCGQGTQVTVSS	low polyreactivity
QVQLVESGGGLVQAGGSLRLSCAASGSTFISYAMGWYRPAPGKERELVAAISRNGGSTDYADSVKGRFTISRDNAKNSVYLQMNSLKPEHTAVYYCAAEYDTWWGGYDYWGQGTQVTVSS	high polyreactivity
QVQLVETGGGLVQAGGSLRLSCAASGSTFYDNAMGWYRQAPGKERELVAAITRSGTRTYYADSVKGRFTISRDNAKNTVYLQMNSLKPEDTAVYYCNVVLYSYVTYRIITHGTYGYWGQGTQVTVSS	high polyreactivity
QVQLVESGGGLVQAGGSLRLSCAASGRTFYYYAMGWYRQAPGKERELVAVISWDDGSTYYADSVKGRFTISRDNAKNTVYLQMNSLKPEVTAVYYCAAYDYLDYADDYWGQGTQVTVSS	low polyreactivity
QVQLVESGGGLVQAGGSLRLSCAASGITQYGYAMGWYRQAPGKEREFVAAISRSGDRTYYADSVKGRYTISRDNAKNTVYLQLNSLKPEDTAVYYCNAWRYDYWGQGTQVTVSS	high polyreactivity
QVQLVESGGGLVQAGGSLRLSCAATGSIIPFYAMGWYRQATGKEREFVAAISRTGGNTYYADSVKGLLTISRDNAKNTVYLQMNSLKPEDTAVYFCATKRKWTYLSFDYWGQGTQVTVSS	low polyreactivity
QVQLVESGGGLVQAGGSLRLSCAASGFIFDSYAMGWYRQAPGKERELVAAISWSGGRTYYADSVKWRFTISRDNAKNTVYLQMNSLKPEDTAVYYCNVRTKLSTSYDYWGQGTQVTVSS	high polyreactivity
QVQLVESGGGLVQAGGSHRLSCDASGRTFYRNAMGWYRQAPGKERELVAGISSRGGSTYYADSVKGRFTISRDNAKNTVYLQMISLKPEDTAVYYCAATSSPYSIYNSWGQGTQVTVSS	high polyreactivity
QVQLVESGGGLVQAGRSLRLSCAASGRIFRSYAMGWYRQAAGKERELVAAINYSGGNTYYADSVKGRFTISRDNAKNTVYLQLNCVKPDDTAVFYCNARGYYYSSRYGYWGQGTQVTVSS	high polyreactivity
QVQLVESGGALVQAGGSLRLSCAASGSIFCYYAMGWYRQAPGKERELVAVINSGGRTNYADSVKGRFTISRDNAKNTVYLQMNSLKPEDTEVYYCAAQGYFVDRAGRYYRGDYWGQGTQVTVSS	high polyreactivity
